{
  "source": "paper doi:10.1101/2021.11.28.470279",
  "binders": {"B1": {"name": "21-mer nicked 3'-8oxoG opposite C (crystal) (dsDNA)", "DNA 1": "GGATCCGTCGACCGCATCAGC", "DNA 2": "GCTGATGCGG", "DNA 3": "TCGACGGATCC", "modifications": "8-oxoG at 3' end of upstream strand (strand 2, written G); 5'-phosphate on downstream strand (strand 3)"}},
  "target": "ΔAPE1 E96Q/D210N (catalytically dead, crystallization construct) (Homo sapiens (human), UniProt P27695 44-318, C138A;E96Q;D210N)",
  "sequence (P27695 44-318 E96Q/C138A/D210N)": "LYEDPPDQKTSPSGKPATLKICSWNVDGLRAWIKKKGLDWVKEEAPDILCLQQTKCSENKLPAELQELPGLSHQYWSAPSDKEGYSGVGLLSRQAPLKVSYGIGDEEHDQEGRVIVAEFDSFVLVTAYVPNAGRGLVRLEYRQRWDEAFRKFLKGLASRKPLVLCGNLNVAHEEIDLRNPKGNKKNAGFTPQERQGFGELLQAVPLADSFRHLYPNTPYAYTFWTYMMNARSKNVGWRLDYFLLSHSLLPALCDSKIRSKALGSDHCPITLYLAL",
  "assay": "crystal structure",
  "data": [
    {"binder": "B1", "values": [
      {"measurement": "binding result", "value": "binds"}
    ]}
  ]
}
